# Patent publication US20110104140A1, “USE OF NON-CATALYTIC FORM OF HEPARANASE AND PEPTIDES THEREOF FOR REVERSING THE ANTI-COAGULANT EFFECTS OF HEPARINOIDS” (priority 2006, published 2011)
# Entries after “also recorded” stand apart in the source; their conditions may differ.
# T1: heparanase (Homo sapiens, UniProt Q9Y251)
# T1 sequence (Q9Y251 158-543 limits assumed): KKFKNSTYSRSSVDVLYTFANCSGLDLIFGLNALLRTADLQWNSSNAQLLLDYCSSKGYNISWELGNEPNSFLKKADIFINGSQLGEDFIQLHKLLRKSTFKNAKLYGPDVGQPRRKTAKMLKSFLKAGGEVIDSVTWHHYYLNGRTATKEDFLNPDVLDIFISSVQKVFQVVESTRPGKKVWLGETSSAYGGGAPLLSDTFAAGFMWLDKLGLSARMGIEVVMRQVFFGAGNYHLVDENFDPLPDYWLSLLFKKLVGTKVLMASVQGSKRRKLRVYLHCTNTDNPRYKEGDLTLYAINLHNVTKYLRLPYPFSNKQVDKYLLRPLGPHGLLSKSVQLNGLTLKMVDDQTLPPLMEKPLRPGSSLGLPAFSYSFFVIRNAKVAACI
# T2: Protein S (Homo sapiens, UniProt P07225)
# T2 construct: from tissue; host or cells: normal plasma
# T2 sequence (P07225 42-676): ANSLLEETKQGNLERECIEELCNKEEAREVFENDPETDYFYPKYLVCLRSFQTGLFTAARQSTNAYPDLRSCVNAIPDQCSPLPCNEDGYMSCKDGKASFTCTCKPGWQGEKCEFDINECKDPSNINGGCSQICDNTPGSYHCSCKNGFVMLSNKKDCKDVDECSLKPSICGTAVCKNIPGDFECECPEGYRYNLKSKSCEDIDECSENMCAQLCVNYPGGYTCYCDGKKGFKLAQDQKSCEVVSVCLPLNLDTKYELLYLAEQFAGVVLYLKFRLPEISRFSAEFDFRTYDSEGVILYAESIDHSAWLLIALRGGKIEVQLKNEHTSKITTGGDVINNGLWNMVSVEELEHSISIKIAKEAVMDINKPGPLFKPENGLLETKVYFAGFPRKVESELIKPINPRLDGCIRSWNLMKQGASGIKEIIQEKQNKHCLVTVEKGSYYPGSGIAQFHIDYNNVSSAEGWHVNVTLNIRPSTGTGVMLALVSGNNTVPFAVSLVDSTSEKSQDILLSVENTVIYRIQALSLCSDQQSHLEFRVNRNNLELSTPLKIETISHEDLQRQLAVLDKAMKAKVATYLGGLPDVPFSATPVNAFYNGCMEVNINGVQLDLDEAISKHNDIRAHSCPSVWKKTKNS
# B1: Heparanase pro-enzyme: latent 65 kDa human heparanase protein with Myc and His tags, purified from conditioned medium of CHO cells (protein, UniProt Q9Y251 36-543, looked up)
# pro-form: QDVVDLDFFTQEPLHLVSPSFLSVTIDANLATDPRFLILLGSPKLRTLARGLSPAYLRFGGTKTDFLIFDPKKESTFEERSYWQSQVNQDICKYGSIPPDVEEKLRLEWPYQEQLLLREHYQKKFKNSTYSRSSVDVLYTFANCSGLDLIFGLNALLRTADLQWNSSNAQLLLDYCSSKGYNISWELGNEPNSFLKKADIFINGSQLGEDFIQLHKLLRKSTFKNAKLYGPDVGQPRRKTAKMLKSFLKAGGEVIDSVTWHHYYLNGRTATKEDFLNPDVLDIFISSVQKVFQVVESTRPGKKVWLGETSSAYGGGAPLLSDTFAAGFMWLDKLGLSARMGIEVVMRQVFFGAGNYHLVDENFDPLPDYWLSLLFKKLVGTKVLMASVQGSKRRKLRVYLHCTNTDNPRYKEGDLTLYAINLHNVTKYLRLPYPFSNKQVDKYLLRPLGPHGLLSKSVQLNGLTLKMVDDQTLPPLMEKPLRPGSSLGLPAFSYSFFVIRNAKVAACI
# modifications: pro-form Myc and His tags
# notes: latent 65 kDa human heparanase protein with Myc and His tags, purified from conditioned medium of CHO cells
# Legend:
# Factor Xa [1] = test: Factor Xa activity in plasma with heparin / LMWH (anti-Xa activity); assay type: biochemical, human; details: for Reversal of Factor Xa inhibitory effect of heparin: peptide, dose dependent, complete at 1 mg/ml, FIG. 6; for Reversal of heparin anti-Xa activity: increasing doses of heparanase proenzyme, in the presence of AT
# Method: Heparin inhibits the activity of activated coagulation factor X (Xa). […] Abbreviations: act. (activity), plas. (plasma).
# (§1) Coagulation Assays • aPTT-Automatic determination of activated partial thromboplastin time (aPTT) of samples was performed in duplicates, by mixing pooled normal plasma with aPTT reagent (FSL actin, Dade Behring). After exactly 10 min, the clotting time was determined on Sysmex CA1500 analyzer. • Xa activity—Photometric determination of anti-Xa activity was performed to evaluate the activity of LMWH in human plasma on Sysmex CA1500 analyzer, using the LMWH Kit (Chromogenics). • PT—Prothrombin time (PT) was determined using the Innovin reagent (Dade Behring) on Sysmex CA1500 analyzer. • Protein C—Protein C activity was determined by the Berichrom Protein C kit, and ATIII was measured by the chromogenic Berichrom Antithrombin III kit (both from Dade Behring). • Platelet aggregation—Platelet aggregation was measured on normal donor platelets utilizing the Payton Aggregocorder type aggregometer (Payton Associates). • Protein S—Free Protein S was measured with the Liatest kit (Diagnostica Stago). All coagulation assays were subjected to external quality control program (NEQUAS, Sheffield, UK).
# In recent years LMWH became widely used anti-coagulants due to their prominent anti-coagulant activity, and improved pharmacokinetics compared with un-fractionated heparin. However, there is still no existing anti-dot to inhibit these clinically highly abundant anti-coagulants, in the case of urgent clinical needs. Such needs may occur during extensive bleedings (e.g. brain) caused by LMWH overdose, or un-controlled bleedings in LMWH treated individuals due to other medical causes. Therefore, the effects of heparanase pro-enzyme on the anti-coagulant activities of heparinoids, was next tested by the inventors. […] Similar effects of heparanase were observed on plasma treated with unfractionated heparin (not shown).
# heparanase = biological target: T1, heparanase; details: previously shown, WO 2005/071070; cited from earlier work
# [2] = system: extrinsic coagulation pathway; test: Prothrombin time (PT); assay type: biochemical; details: for Effect on PT response: not shown
# Method: as §1
# (§2) To examine the possible involvement of heparanase in the coagulation process, variety of coagulation tests including activated […] (aPTT, testing the intrinsic coagulation pathway), prothrombin time (PT, testing the extrinsic coagulation pathway), thrombin time (TT, testing thrombin mediated fibrin generation), as well as protein C and protein S (both coagulation inhibitors) were performed by the inventors.
# [3] = system: heparin anti-coagulant effects on thrombin activity; test: Thrombin time assay (TTA) in normal plasma with heparin; assay type: biochemical; details: FIG. 3
# Excerpt: In the thrombin time assay (TTA), clot is generated within normal plasma. […] Abbreviations: cont. (control), sec. (seconds), N. coag. (No coagulation).
# The extent of blood coagulation responses requires the balance by anticoagulant components in the microenvironment of the endothelium, represented by cell surface HSPG and associated coagulation inhibitors. Heparanase, which is released from platelets upon activation may function as a physiological procoagulant. […] Two coagulation assays are affected by heparinoids: activated partial thromboplastin time (aPTT) which measures the intrinsic coagulation pathway, and thrombin time (TT) which measures the thrombin-mediated conversion of fibrinogen to fibrin. As illustrated by FIG. 1, in both cases, heparin forms a ternary complex with the natural thrombin inhibitor antithrombin III (ATIII) and thrombin, resulting in thrombin inactivation. […] The inventors therefore next examined the effect of heparanase on the heparin induced reduction of both, aPTT and TT responses.
# [4] = system: heparin anti-coagulant effects on the aPTT response; test: aPTT assay in normal plasma with heparin; assay type: biochemical
# Method: In the aPTT assay, clot is generated within normal plasma by the intrinsic coagulation pathway. […] Abbreviations: cont. (control), N. coag. (No coagulation).
# as §1
# The extent of blood coagulation responses requires the balance by anticoagulant components in the microenvironment of the endothelium, represented by cell surface HSPG and associated coagulation inhibitors. Heparanase, which is released from platelets upon activation may function as a physiological procoagulant. […] Two coagulation assays are affected by heparinoids: activated partial thromboplastin time (aPTT) which measures the intrinsic coagulation pathway, and thrombin time (TT) which measures the thrombin-mediated conversion of fibrinogen to fibrin. As illustrated by FIG. 1, in both cases, heparin forms a ternary complex with the natural thrombin inhibitor antithrombin III (ATIII) and thrombin, resulting in thrombin inactivation. […]
# normal donor platelets = test: Platelet aggregation stimulated by mediators (ADP, collagen, thrombin); assay type: cell-based; details: Heparanase 10 μg/ml
# Method: as §1
# The effects of heparanase on platelet aggregation stimulated by a variety of mediators (e.g. ADP, collagen, thrombin), was next tested.
# [5] = system: thrombin mediated fibrin generation; test: Thrombin time (TT), direct effect; assay type: biochemical; details: Heparanase 10 μg/ml; normal range 14-21 sec
# Excerpt: Another test may be the Thrombin Time (TT) assay which reflects the time taken for a plasma sample to clot on addition of thrombin. The test is essentially a measure of fibrinogen to fibrin conversion and the factors affecting this terminal stage of the coagulation system.
# as §2
# Factor Xa [6] = biological target: T3, Factor Xa (Bos taurus, UniProt P00743); test: Factor Xa activity, direct effect; assay type: biochemical, human; details: Heparanase 10 μg/ml, no heparinoid, normal value 100%
# T3 construct: purchased Chromogenics
# Method: as §1
# Protein C = biological target: T4, Protein C (Homo sapiens, UniProt P04070); test: Protein C activity (Berichrom Protein C kit); assay type: biochemical; details: Heparanase 10 μg/ml; normal range 75-151%
# T4 construct: from tissue; host or cells: normal plasma
# Method: as §1
# Antithrombin III = biological target: T5, Antithrombin III (Homo sapiens, UniProt P01008); test: Antithrombin III (chromogenic Berichrom Antithrombin III kit); assay type: biochemical; details: Heparanase 10 μg/ml; normal range 74-114%
# T5 construct: from tissue; host or cells: normal plasma
# Method: as §1
# [7] = system: intrinsic coagulation pathway; test: Activated partial thromboplastin time (aPTT), direct effect; assay type: biochemical; details: Heparanase 10 μg/ml; normal range 25-34 sec
# Method: as §1, with “UK). […]” for “UK).”
# Protein S = biological target: T2, Protein S; test: Protein S activity (Liatest kit); assay type: biochemical; details: Heparanase 10 μg/ml; normal range 54-138%
# Method: as §1
# Factor Xa [8] = test: Factor Xa activity ex vivo in plasma of LMWH-treated patients; assay type: biochemical, human; details: for Factor Xa activity in LMWH-treated patient plasma: plasma of twelve LMWH-treated patients, measured within 5 min, recombinant pro-heparanase, FIG. 5A
# Method: FIG. 5A. Heparanase pro-enzyme was added to plasma derived from twelve independent LMWH-treated patients. Factor Xa activity was then measured, within 5 min. Each sample was measured in the absence (open bars) or presence (filled bars) of […] recombinant pro-heparanase. Each measurement was performed in duplicates (the average of each duplicate is shown, with differences between measurements <10%).
# FIG. 5B. Summary of the effect of pro-heparanase on Factor Xa activity in the presence of heparin treated plasma, and the 12 LMWH-treated patient derived plasma samples (average±S.D.). Abbreviations: act. (activity), pat. (patient), pla. (plasma) cont. (control).
# In order to assess possible clinical effects of heparanase pro-enzyme as an anti-dot to LMWH, heparanase pro-enzyme effect on Factor Xa activity ex vivo, was next tested in plasma derived from patients treated with LMWH, which were incubated with 10 •g/ml heparanase proenzyme. […] Thus, heparanase pro-enzyme reduced FXa inhibitory effects of LMWH in individual patient plasma samples, even at high levels of LMWH. Overall, the level of FXa inhibitory activity of LMWH in treated patients was reduced approximately by 50% (FIG. 5B).
# T3 sequence (P00743 234-492 limits assumed): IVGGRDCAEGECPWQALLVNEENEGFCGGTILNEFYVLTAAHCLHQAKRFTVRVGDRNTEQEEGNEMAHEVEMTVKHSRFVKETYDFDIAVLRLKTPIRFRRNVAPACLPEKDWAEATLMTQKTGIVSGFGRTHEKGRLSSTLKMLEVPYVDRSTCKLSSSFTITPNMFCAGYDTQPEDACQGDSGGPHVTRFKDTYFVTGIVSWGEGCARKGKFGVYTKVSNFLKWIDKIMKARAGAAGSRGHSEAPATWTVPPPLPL
# T3 sequence (P00743 41-180 limits assumed): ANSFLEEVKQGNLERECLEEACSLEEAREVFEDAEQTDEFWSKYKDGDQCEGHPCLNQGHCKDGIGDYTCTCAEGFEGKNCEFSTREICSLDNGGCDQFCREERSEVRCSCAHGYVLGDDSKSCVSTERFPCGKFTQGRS
# T4 sequence (P04070 19-461 limits assumed): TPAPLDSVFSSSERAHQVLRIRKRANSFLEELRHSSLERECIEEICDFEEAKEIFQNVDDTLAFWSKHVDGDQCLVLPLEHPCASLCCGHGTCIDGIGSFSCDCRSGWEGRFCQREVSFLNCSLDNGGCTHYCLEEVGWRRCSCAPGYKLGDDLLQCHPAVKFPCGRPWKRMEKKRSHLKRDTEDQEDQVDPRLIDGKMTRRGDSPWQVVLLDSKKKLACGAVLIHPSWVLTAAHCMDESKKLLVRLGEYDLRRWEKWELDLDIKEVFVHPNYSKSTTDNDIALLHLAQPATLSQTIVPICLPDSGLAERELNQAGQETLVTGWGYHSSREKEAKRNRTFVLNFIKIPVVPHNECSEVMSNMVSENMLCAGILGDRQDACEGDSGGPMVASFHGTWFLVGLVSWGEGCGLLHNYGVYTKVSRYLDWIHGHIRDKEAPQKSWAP
# T5 sequence (P01008 33-464): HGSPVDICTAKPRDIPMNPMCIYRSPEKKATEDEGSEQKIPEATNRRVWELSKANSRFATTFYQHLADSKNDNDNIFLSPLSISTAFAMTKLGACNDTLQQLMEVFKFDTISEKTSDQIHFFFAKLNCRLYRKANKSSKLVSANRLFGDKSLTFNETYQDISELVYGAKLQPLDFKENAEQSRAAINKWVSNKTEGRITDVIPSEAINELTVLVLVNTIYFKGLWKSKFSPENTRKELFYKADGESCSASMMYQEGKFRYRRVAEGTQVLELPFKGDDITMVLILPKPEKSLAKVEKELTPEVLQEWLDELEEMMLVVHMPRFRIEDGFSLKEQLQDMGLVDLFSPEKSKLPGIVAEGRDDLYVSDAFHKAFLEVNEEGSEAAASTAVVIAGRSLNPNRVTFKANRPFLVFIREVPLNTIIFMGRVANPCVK
molecule,measurement,setting,value
"Enoxaparin [low molecular weight heparin, reference compound]",Effect of heparinoid on Factor Xa activity,Factor Xa [1]; FIG. 4,reduces significantly
"Lys158-Asp171 heparin-binding peptide: fourteen amino acid peptide of residues Lys158-Asp171 of human heparanase, heparin-binding domain, SEQ ID NO: 1 (KKFKNSTYSRSSVD; listed as Homo sapiens)",Inhibition of heparanase enzymatic activity,heparanase,inhibited heparanase enzymatic activity in a dose-responsive manner
same,Reversal of Factor Xa inhibitory effect of LMWH,"Factor Xa [1]; peptide 1 mg/ml, FIG. 7",completely reverse
same,Reversal of Factor Xa inhibitory effect of UFH,"Factor Xa [1]; peptide 1 mg/ml, FIG. 7",completely reverse
same,Reversal of Factor Xa inhibitory effect of LMWH,"Factor Xa [1]; peptide 1 mg/ml, FIG. 7, listed as Lys158-Asp171 heparin binding (HB) peptide",abolished
same,Reversal of Factor Xa inhibitory effect of heparin,Factor Xa [1],completely reverse
same,Reversal of Factor Xa inhibitory effect of heparin,Factor Xa [1]; listed as Lys158-Asp171 heparin binding (HB) peptide,abolished the FXa inhibitory effects of heparin
heparin [reference compound],Effect on PT response,[2],neither heparin nor heparanase pro-enzyme affected
same,Inhibition of clot formation in thrombin time assay,[3]; 0.5 u/ml heparin,complete coagulation inhibition
same,Inhibition of clot formation in aPTT assay,"[4]; 1 u/ml heparin, normal plasma, FIG. 2",complete coagulation inhibition
B1,Platelet aggregation,normal donor platelets,No effects of heparanase
same,Thrombin time (TT),[5],17.3 s
same,Factor Xa-activity,Factor Xa [6],102%
same,Factor Xa-activity,Factor Xa [6]; listed as heparanase proenzyme,had no effect
same,Protein C-activity,Protein C,111%
same,Prothrombin time (PT),"[2]; Heparanase 10 μg/ml, normal range 10.03-12.43 sec, single representative experiment",10.6 s
same,Effect on PT response,[2],neither heparin nor heparanase pro-enzyme affected
same,Reversal of heparin anti-coagulant effects on thrombin time,[3],significantly prevented; also recorded: significantly reversed
same,Antithrombin III,Antithrombin III,103%
same,Pro-coagulant effects at low concentration,"[4]; heparanase concentrations of less then 5 μg/ml, not shown, assay not specified",no pro-coagulant effects
same,Reversal of heparin anti-coagulant effects on the aPTT response,"[4]; normal plasma, neutral pH, FIG. 2",significantly reversed
same,Activated partial pro-thrombin time (aPTT),[7],29.4 s
same,Reversal of heparin anti-Xa activity,Factor Xa [1]; FIG. 4,restoring Xa activity to normal levels
same,Reversal of heparin anti-Xa activity,"Factor Xa [1]; FIG. 4, listed as heparanase proenzyme",restoring FXa activity to the normal level
same,Protein S-activity,Protein S,105%
same,Reduction of FXa inhibitory activity of LMWH in treated patients,"Factor Xa [8]; 10 •g/ml heparanase proenzyme, overall of 12 patients, FIG. 5B",~50%
same,Factor Xa activity in LMWH-treated patient plasma,Factor Xa [8],significant elevation
same,Factor Xa activity in LMWH-treated patient plasma,Factor Xa [8]; listed as heparanase pro-enzyme,elevated significantly
